Biological target: Atto 488 labelled FaeG (Escherichia coli)

| Binder | Hydrodynamic radius (nm) |
| --- | --- |
| F45 single-domain antibody (VHH) VHH: QVQLQESGGGLVQPGGSLRLSCLVSGGTFSWYAMGWFRQAPGKEREFVATVSRGGGSSYYADSVKGRFTISRDNAKNTVYLQMNSLKPEDTAVYYCAAGRGAPSDTGRPDEYDYWGQGTQVTVSS | 3.02 nm |
| F45::(GGGGS)3::F45 homodivalent protein construct (VHH) QVQLQESGGGLVQPGGSLRLSCLVSGGTFSWYAMGWFRQAPGKEREFVATVSRGGGSSYYADSVKGRFTISRDNAKNTVYLQMNSLKPEDTAVYYCAAGRGAPSDTGRPDEYDYWGQGTQVTVSSGGGGSGGGGSGGGGSQVQLQESGGGLVQPGGSLRLSCLVSGGTFSWYAMGWFRQAPGKEREFVATVSRGGGSSYYADSVKGRFTISRDNAKNTVYLQMNSLKPEDTAVYYCAAGRGAPSDTGRPDEYDYWGQGTQVTVSS | 2.97 nm |
